Columns and labels:
Test in all cases: fluorescence microscopy, LentiX cells co-expressing Lck (FIG. 38)
[1] = target: T1, GFP-tagged PD1, F223/F248 PD1 (UniProt Q15116 25-288)
T1 construct: whole, on cells; In LentiX cells co-expressing Lck; not shown: GFP tag

[2] = target: T2, GFP-tagged PD1, Y223/F248 PD1 (UniProt Q15116 25-288)
T2 construct: whole, on cells; In LentiX cells co-expressing Lck; not shown: GFP tag

[3] = target: T3, GFP-tagged PD1, wildtype PD1 (Y223/Y248) (UniProt Q15116 25-288, tyrosine phosphorylation by co-expressed Lck (implied, not measured in this experiment))
T3 construct: whole, on cells; In LentiX cells co-expressing Lck; not shown: GFP tag

[4] = target: T4, GFP-tagged PD1, F223/Y248 PD1 (UniProt Q15116 25-288)
T4 construct: whole, on cells; In LentiX cells co-expressing Lck; not shown: GFP tag

Measured: binding result

B1: mCherry-tagged Binder-NT7 (designed binder)
chain: ERFDSLTDLVEHYKKNPMVETLGTVLQLKQPLGGSGGGWFHGHLSGKEAEKLLTEKGKHGSFLVRESQSHPGDFVLSVRTGDDKGESNDGKSKVTHVMIRCQELKYDVGGGGGSQLQESGGGLVQAGGSLRLSCAASGYIFSRWYMGWYRQAPGKEREFVAGIDQGSITYYADSVKGRFTISRDNAKNTVYLQMNSLKPEDTAVYYCAAVAWAGYPWYYKHAYWGQGTQVTVSS
notes: Expressed in LentiX cells co-expressing Lck; not shown: mCherry tag
binds: [1] | [2] | [3] | [4]

— US20260201035A1 (published 2026)
